Source: the nanobody polyreactivity screen of Harvey et al. (2022)

Test: yeast display, Sf9 membrane polyspecificity reagent, FACS + sequencing; frameworks hold sequencing errors
In short: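 A synthetic nanobody library was expressed on Saccharomyces cerevisiae BJ5465 by galactose induction for 36–48 hours. The library was stained for 1 hour at 4 °C with 10% biotinylated, detergent-solubilized Sf9 membrane reagent and enriched with streptavidin microbeads before FACS. Low and high (top ~1%) gates were set on anti-HA fluorescence for expression and streptavidin fluorescence for reagent binding, and each polyreactivity label reflects the gate of origin.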

| Sequence | polyreactivity (PSR sort gate) |
| --- | --- |
| QVQLVESGGGLVQAGGSLRLSCAASGRIFLRNAMGWYRQAPGNERELVATITSRGGSTYYADSVKGRFTISRDNAKNTVYLQMNSLKPEDTAVYYSAADPSRYRSFGYVYGGYYYWGQGTQVTVSS | low polyreactivity |
| QVQLVESGGGLVQAGGSLRLSCAASGRIFLRNAMGWYRQEPGKERELVASIDRSGGSTYYADSVKGRFTISRDNAKNTVFLQMNSLKPEDTAVYYCAAAYWYLYYYWGQGTQVTVSS | low polyreactivity |
| QVQLVESGGGLVQAGGSLRLSCAASGRIFLSNAMGWYRQAPGKERELVASITSGGSTNYADSVKGRFTISRDNAKNTVYLQMNSLKPEDTAVYYCAKRYRHSGYFVGFNYWGQGTQVTVSS | high polyreactivity |
| QVQLVESGGGLVQAGGSLRLSCAASGRIFLSYTMGSYRQAPGKERELVAAISRGGRTYYADSVKGRFTISLDNAKNTVYLQMNSLKPEDTAVYYCAKKYGRYGSLRGRTIDDYWGQGTEVTVSS | low polyreactivity |
| QVQLVESGGGLVQAGGSLRLSCAASGRIFLTNAMGWYRQAPGKERELVADITSGGATYYADSVKGRFTISRDNAKNSVYLQMNSLKPVDTAVYYCNADTDRYWPYEYDYWGQGSQVTVSS | low polyreactivity |
| QVQLVESGGGLVQAGGSLRLSCAASGRIFLVNAMGWYRQAPGKERELVAAINFISGSTYYADSVKGRFTISRDNAKNTVYLQMNSLKPEDTAVYYCAAYSYWSYVQRYKLEYDYWGQGTQVTVSS | low polyreactivity |
| QVQLVESGGGLVQAGGSLRLSCAASGRIFLWYAMGWYRQAPGKERELVAAISRTGGSTYYADSVKGRFTISRDNAKNTVYLQMNSLKPEDTAVYFCAAYHSYKTSWPQSGYWGQGTQVTVSS | high polyreactivity |
| QVQLVESGGGLVQAGGSLRLSCAASGRIFLWYAMGWYRQAPGKERELVAAISSGGSTIYADSVKGRFTISRDNAKNTVYLQMNSLKPEDTAVNYCAAFPTQRRHPLVGFNSWGQGTQVTVSS | high polyreactivity |
| QVQLVESGGGLVQAGGSLRLSCAASGRIFLWYAMGWYRQAPGKERELVAAISSNGGSTRYADSVKGRFTFSRDNAKNTVYLQMNSLKPEDTAVYYCNADVHWNRYPYGGNGYGYWGQGTQVTVSS | low polyreactivity |
| QVQLVESGGGLVQAGGSLRLSCAASGRIFLWYAMGWYRQAPGKERELVAGISSGASTYYADSVKGRFTISRDNAKNTVYLQMNSLKPEDTAVYYCAAPYYRLTGWSRYDYWGQGTQVTVSS | high polyreactivity |
| QVQLVESGGGLVQAGGSLRLSCAASGRIFLYYAMGWYRQAPGKERELVAAISFRGGSTYYADSVKGRFTISRDNAKNTVYLQMNSLKPEDTAVYYCNAVRDWGPSQVYDGMDYWGQGTQVTVSS | low polyreactivity |
| QVQLVESGGGLVQAGGSLRLSCAASGRIFLYYAMGWYRQAPGKERELVAAISSGGSTYYADSVKGRFTISRDNAKNTVYLQMNSLKPEDTAVYYCATPSGRWGHYGYWGQGTQVTVSS | low polyreactivity |
| QVQLVESGGGLVQAGGSLRLSCAASGRIFLYYAMGWYRQAPGKERELVAAITSSGGDTYYADSVKGRFTISRDNANNTVYLQMYSLKPEDTAVYYCAAYSWWNEYDYWGQGTQVTVSS | high polyreactivity |
| QVQLVESGGGLVQAGGSLRLSCAASGRIFLYYAMGWYRQAPGKERELVAAITSSGGGTYYADSVKGRFTISRDNAKNTVYLQMNSLKPEDTAVYYCAARRRSQWRYYYWGQGTQVTVSS | high polyreactivity |
| QVQLVESGGGLVQAGGSLRLSCAASGRIFLYYTMGWYRQATWKERELVAAITRSGGSTYYADSVKGRFTISRDNAKNTVYLQMNSLKPEDTAVYYCNRAYVRYVPMNYWGQGTQVTVSS | high polyreactivity |
| QVQLVESGGGLVQAGGSLRLSCAASGRIFNAYAMGWYRQAPGKERELVASISWSGGSTFYADSVKGRFTISRDNAKNTVYLQMNSLKPEDTAVYYCNADRRSSRHWWSITAYEYWGQGTQVTVSS | high polyreactivity |
| QVQLVESGGGLVQAGGSLRLSCAASGRIFNDYAMGWSRQAPGKERELVAVIRRSGVSTYYADSVKGRFTISRDNAKNTVYLQMNSLKPEDTAVYYCAAYGYWGQGTQVTVSS | low polyreactivity |
